System: peptide library, one residue held at a place counted from the S/T acceptor
Test: relative phosphorylation of the sub-library (ratio to the mean residue at this position); higher = residue favoured
Conditions: human
Method in brief: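 Relative sub-library phosphorylation is the ratio of each sub-library's signal to the mean residue at that position. The signal came from phosphorimaging of spots on streptavidin membranes, quantified by densitometry, after purified recombinant kinases reacted with biotinylated degenerate peptide sub-libraries in 384-well plates. Reactions held 50 μM peptide and 50 μM ATP spiked with γ-32P-ATP for 90 min under kinase-specific conditions.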

CDK14, construct: Full length, sequence (O94921 whole entry, looked up): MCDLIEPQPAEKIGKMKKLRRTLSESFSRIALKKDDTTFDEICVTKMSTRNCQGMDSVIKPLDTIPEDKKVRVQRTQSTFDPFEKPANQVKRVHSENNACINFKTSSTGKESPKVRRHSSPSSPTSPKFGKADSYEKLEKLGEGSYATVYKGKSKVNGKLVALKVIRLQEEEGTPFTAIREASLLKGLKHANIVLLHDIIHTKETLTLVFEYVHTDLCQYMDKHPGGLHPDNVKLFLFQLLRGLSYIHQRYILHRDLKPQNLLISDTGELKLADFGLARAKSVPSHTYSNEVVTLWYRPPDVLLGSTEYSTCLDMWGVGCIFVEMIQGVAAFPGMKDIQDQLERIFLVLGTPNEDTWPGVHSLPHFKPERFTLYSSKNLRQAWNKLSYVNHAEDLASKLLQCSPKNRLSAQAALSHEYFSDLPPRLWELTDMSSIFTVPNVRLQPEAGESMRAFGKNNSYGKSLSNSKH

CDK14, construct: Full length (from UniProt O94921)
relative phosphorylation
Conditions	at +1	at +2	at +3	at +4	at -1	at -2	at -3	at -4	at -5
A fixed	0.252	0.535	0.827	0.626	0.896	0.722	0.989	0.958	0.859
D fixed	0.129	0.365	0.343	0.472	0.376	0.251	0.328	0.625	0.582
E fixed	0.123	0.292	0.266	0.344	0.366	0.258	0.438	0.592	0.521
F fixed	0.298	0.793	1.44	0.708	0.704	0.777	0.768	0.725	0.798
G fixed	1.29	0.619	0.785	1.64	2.02	0.774	1.29	1.08	1.13
H fixed	0.294	1.19	0.793	1.08	0.835	0.972	0.974	0.978	1.34
I fixed	0.332	1.25	1.03	0.677	0.324	0.749	0.879	1.39	1.22
K fixed	0.38	2	0.937	1.84	1.44	1.14	1.09	1.59	1.78
L fixed	0.392	1.39	2.38	0.74	1.04	1.29	0.839	1.2	1.23
M fixed	0.345	1.1	1.97	0.88	1.36	1.11	0.875	0.942	1.06
N fixed	0.247	0.858	0.6	1.04	0.873	0.701	0.75	1.19	1.15
P fixed	11.4	0.665	1.28	1.07	1.77	2.49	1.43	1.01	0.957
Q fixed	0.286	0.854	0.772	0.935	0.863	0.794	0.756	0.843	0.822
R fixed	0.377	2.41	1.02	2.69	1.92	2.6	3	1.31	1.17
V fixed	0.305	1.05	0.764	0.582	0.421	0.724	0.753	0.717	0.71
W fixed	0.301	0.713	1.09	0.962	0.802	0.995	0.955	1.06	0.823
Y fixed	0.257	0.92	0.698	0.714	0.984	0.648	0.884	0.78	0.865
pThr fixed	0.511	0.842	0.801	0.524	0.457	0.755	0.839	0.879	0.885
pTyr fixed	0.609	0.486	0.841	0.387	0.427	0.42	0.605	0.531	0.697

— the supplement of paper PMC9876800
